The subject of data set [1] is UvrD1-647 (Escherichia coli MG1655). Kind of data set: DNA-dependent ATPase, poly(dT) titration (KDNA, half-maximal activity). To be noted: NER complex: 40 mM HEPES pH 8.0, 100 mM KCl, 8 mM MgCl2, 5 mM DTT, 100 ug/ml BSA, 11% glycerol, 2 mM ATP with regeneration system, 37 C; ATPase assay ….
The test system of data set [2] is UvrD (helicase II) (Escherichia coli MG1655). The description is as above. To be noted: NER complex: 40 mM HEPES pH 8.0, 100 mM KCl, 8 mM MgCl2, 5 mM DTT, 100 ug/ml BSA, 11% glycerol, 2 mM ATP with regeneration system, 37 C; ATPase assay ….
Data set [3] concerns the target T1, ^bioUvrD, full-length UvrD biotinylated at the N-terminus (E. coli, UniProt P03018 1-720, biotin on the lysine of the N-terminal tag … (biotinylated in vivo by BirA)).
T1 construct: UvrD (helicase II), E. coli MG1655, whole coding region (720 residues); The tag was inserted at the NcoI site that overlaps the start codon of uvrD; also called biotinylated UvrD; source: E. coli BL21(DE3) with pBirACm and pET28a-^bioUvrD, purified (ammonium sulphate, Softlink Avidin, HiTrap heparin)
T1 sequence (looked up): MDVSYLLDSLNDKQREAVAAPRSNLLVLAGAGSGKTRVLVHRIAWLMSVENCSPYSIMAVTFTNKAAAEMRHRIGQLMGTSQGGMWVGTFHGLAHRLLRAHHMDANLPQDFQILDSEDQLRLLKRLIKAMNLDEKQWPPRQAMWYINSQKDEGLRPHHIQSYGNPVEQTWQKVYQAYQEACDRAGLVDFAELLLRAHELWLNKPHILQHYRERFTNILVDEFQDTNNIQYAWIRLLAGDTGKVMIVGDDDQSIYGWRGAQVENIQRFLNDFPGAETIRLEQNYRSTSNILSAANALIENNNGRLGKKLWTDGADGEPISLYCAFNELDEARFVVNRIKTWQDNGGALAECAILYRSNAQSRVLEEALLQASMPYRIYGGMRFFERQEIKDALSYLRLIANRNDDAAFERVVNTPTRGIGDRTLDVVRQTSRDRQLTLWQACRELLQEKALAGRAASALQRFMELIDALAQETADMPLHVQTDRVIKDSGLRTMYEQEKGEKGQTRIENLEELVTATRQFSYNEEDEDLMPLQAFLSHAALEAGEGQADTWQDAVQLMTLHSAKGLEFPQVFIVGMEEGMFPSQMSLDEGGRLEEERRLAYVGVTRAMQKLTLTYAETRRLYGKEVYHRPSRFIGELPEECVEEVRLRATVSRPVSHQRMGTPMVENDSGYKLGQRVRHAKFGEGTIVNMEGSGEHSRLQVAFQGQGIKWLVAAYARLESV
Kind of data set: SPR; BIAcore 2000; ^bioUvrD or ^bioUvrD_(1–647) immobilised on streptavidin (SA) chip (~7000 RU); UvrB or UvrB_(1–414) injected at 0.05-4.0 μM, 20 μl/min, 25 °C; 10 mM HEPES pH 7.4, 150 mM NaCl, 3 mM EDTA, 0.005% Tween20. To be noted: both partners purified. For orientation: SPR reads the build-up and loss of mass on a sensor chip optically.

The target in data set [4] is T2, UvrD (helicase II), native untagged (E. coli, UniProt P03018 1-720).
T2 construct: UvrD (helicase II), E. coli MG1655, whole coding region from start to stop codon (720 residues); also called full-length UvrD; wild-type UvrD; source: E. coli BL21(DE3), pETDUET-UvrD, purified (heparin, MonoQ)
T2 sequence (looked up): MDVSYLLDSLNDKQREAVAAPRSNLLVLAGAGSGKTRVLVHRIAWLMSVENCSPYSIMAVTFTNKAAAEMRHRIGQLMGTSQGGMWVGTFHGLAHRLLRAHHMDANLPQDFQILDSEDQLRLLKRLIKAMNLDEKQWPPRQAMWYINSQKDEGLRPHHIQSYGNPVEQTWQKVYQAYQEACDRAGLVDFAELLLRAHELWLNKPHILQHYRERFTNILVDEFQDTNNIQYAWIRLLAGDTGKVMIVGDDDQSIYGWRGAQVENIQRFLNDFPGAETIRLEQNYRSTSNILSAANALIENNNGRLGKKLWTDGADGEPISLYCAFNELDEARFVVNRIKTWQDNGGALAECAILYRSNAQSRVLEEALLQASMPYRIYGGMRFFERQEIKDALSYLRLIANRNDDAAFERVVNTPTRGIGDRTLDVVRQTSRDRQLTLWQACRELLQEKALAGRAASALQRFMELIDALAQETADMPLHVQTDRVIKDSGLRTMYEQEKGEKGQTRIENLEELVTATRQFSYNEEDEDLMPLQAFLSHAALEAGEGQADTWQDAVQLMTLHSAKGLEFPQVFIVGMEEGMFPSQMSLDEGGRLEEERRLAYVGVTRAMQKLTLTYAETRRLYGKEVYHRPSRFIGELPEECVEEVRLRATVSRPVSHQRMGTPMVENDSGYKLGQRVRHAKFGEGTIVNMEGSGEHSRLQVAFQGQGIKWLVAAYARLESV
Kind of data set: SPR; BIAcore 2000; UvrB or UvrB_(1–414) immobilised on CM5 chip by amine coupling (~8000 RU); UvrD or UvrD_(1–647) injected at 0.05-4.0 μM, 20 μl/min, 25 °C; 10 mM HEPES pH 7.4, 150 mM NaCl, 3 mM EDTA, 0.005% Tween20. To be noted: both partners purified.

For data set [5], the target named is T3, λ cI-UvrB 35–252 (1a2) fusion protein (E. coli, UniProt P0A8F8 35-252).
T3 construct: UvrB, E. coli, residues 35-252 (domains 1a and 2); also called UvrB fragment containing domains 1a and 2; source: bacterial two-hybrid fusion, pRA03 derivative, in E. coli KS1; not shown: λ cI residues 1–236, N-terminal, kept
T3 sequence (looked up): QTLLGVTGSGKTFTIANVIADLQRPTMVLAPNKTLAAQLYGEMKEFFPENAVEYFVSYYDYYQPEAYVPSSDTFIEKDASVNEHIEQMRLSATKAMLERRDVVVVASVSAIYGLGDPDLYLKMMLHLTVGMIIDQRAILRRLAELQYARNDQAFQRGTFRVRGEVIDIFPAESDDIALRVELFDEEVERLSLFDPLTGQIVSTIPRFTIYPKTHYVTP
Kind of data set: two-hybrid; bacterial 2-hybrid (Dove and Hochschild) in E. coli KS1: UvrD fragments fused to RNA polymerase α 1–248, UvrB fragments fused to λ cI 1–236; chromosomal lacZ reporter, β-galactosidase in Miller Units; LB with 1 mM IPTG, 30 °C, mid-log phase. The settings on record: partners not purified.

Data set [6] concerns the target T4, λ cI-UvrB 527–673 (4) fusion protein (E. coli, UniProt P0A8F8 527-673).
T4 construct: UvrB, E. coli, residues 527-673 (domain 4); also called UvrB domain 4; source: bacterial two-hybrid fusion, pRA03 derivative, in E. coli KS1; not shown: λ cI residues 1–236, N-terminal, kept
T4 sequence (looked up): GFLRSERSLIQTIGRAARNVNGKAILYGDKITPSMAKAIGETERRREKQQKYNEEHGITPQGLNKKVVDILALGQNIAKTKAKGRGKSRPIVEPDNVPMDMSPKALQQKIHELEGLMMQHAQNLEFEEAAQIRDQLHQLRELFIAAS
The data set is described as above. The settings on record: partners not purified.

Data set [7] concerns the target T5, λ cI-UvrB 251–547 (1b3) fusion protein (E. coli, UniProt P0A8F8 251-547).
T5 construct: UvrB, E. coli, residues 251-547 (domains 1b and 3); also called UvrB domains 1b and 3; source: bacterial two-hybrid fusion, pRA03 derivative, in E. coli KS1; not shown: λ cI residues 1–236, N-terminal, kept
T5 sequence (looked up): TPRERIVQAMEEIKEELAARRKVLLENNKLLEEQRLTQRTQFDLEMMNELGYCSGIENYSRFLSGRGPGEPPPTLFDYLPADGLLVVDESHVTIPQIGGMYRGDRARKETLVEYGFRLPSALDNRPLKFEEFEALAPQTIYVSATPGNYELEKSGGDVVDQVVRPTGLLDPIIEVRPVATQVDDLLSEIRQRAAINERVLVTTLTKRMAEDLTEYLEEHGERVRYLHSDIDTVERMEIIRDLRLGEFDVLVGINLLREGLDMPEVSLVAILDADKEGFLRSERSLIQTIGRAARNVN
The description is as above. The settings on record: partners not purified.

We go through 5 molecules from paper PMC2997466, “The unstructured C-terminal extension of UvrD interacts with UvrB, but is dispensable for nucleotide excision repair” (DNA Repair, 2009).

For the molecule poly(dT), the K half (uM nucleotides) in data set [1] came out at 2.5; in data set [2], 0.54.

B1: UvrB, N-terminally hexa-His-tagged (natural protein, E. coli, UniProt P0A8F8 1-673, looked up)
chain: MSKPFKLNSAFKPSGDQPEAIRRLEEGLEDGLAHQTLLGVTGSGKTFTIANVIADLQRPTMVLAPNKTLAAQLYGEMKEFFPENAVEYFVSYYDYYQPEAYVPSSDTFIEKDASVNEHIEQMRLSATKAMLERRDVVVVASVSAIYGLGDPDLYLKMMLHLTVGMIIDQRAILRRLAELQYARNDQAFQRGTFRVRGEVIDIFPAESDDIALRVELFDEEVERLSLFDPLTGQIVSTIPRFTIYPKTHYVTPRERIVQAMEEIKEELAARRKVLLENNKLLEEQRLTQRTQFDLEMMNELGYCSGIENYSRFLSGRGPGEPPPTLFDYLPADGLLVVDESHVTIPQIGGMYRGDRARKETLVEYGFRLPSALDNRPLKFEEFEALAPQTIYVSATPGNYELEKSGGDVVDQVVRPTGLLDPIIEVRPVATQVDDLLSEIRQRAAINERVLVTTLTKRMAEDLTEYLEEHGERVRYLHSDIDTVERMEIIRDLRLGEFDVLVGINLLREGLDMPEVSLVAILDADKEGFLRSERSLIQTIGRAARNVNGKAILYGDKITPSMAKAIGETERRREKQQKYNEEHGITPQGLNKKVVDILALGQNIAKTKAKGRGKSRPIVEPDNVPMDMSPKALQQKIHELEGLMMQHAQNLEFEEAAQIRDQLHQLRELFIAAS
notes: UvrB, E. coli MG1655, whole coding region from start to stop codon (673 residues); also called full-length UvrB; source: E. coli XL1-Blue, pQE30UvrB, purified (Ni HiTrap chelating column)
Regarding B1, the binding result in data set [3] and in data set [4] was “binds” throughout.

B2: UvrB_(1–414), N-terminally His-tagged (domain or fragment, E. coli, UniProt P0A8F8 1-414, looked up)
chain: MSKPFKLNSAFKPSGDQPEAIRRLEEGLEDGLAHQTLLGVTGSGKTFTIANVIADLQRPTMVLAPNKTLAAQLYGEMKEFFPENAVEYFVSYYDYYQPEAYVPSSDTFIEKDASVNEHIEQMRLSATKAMLERRDVVVVASVSAIYGLGDPDLYLKMMLHLTVGMIIDQRAILRRLAELQYARNDQAFQRGTFRVRGEVIDIFPAESDDIALRVELFDEEVERLSLFDPLTGQIVSTIPRFTIYPKTHYVTPRERIVQAMEEIKEELAARRKVLLENNKLLEEQRLTQRTQFDLEMMNELGYCSGIENYSRFLSGRGPGEPPPTLFDYLPADGLLVVDESHVTIPQIGGMYRGDRARKETLVEYGFRLPSALDNRPLKFEEFEALAPQTIYVSATPGNYELEKSGGDVVDQVVR
notes: also called truncated derivative of UvrB comprising domains 1a, 2 and 1b
As to B2, the binding result in data set [3] and in data set [4] was “binds” each time.

B3: α-UvrD 645–720 (C-extension) fusion protein (domain or fragment, E. coli, UniProt P03018 645-720, looked up)
chain: RLRATVSRPVSHQRMGTPMVENDSGYKLGQRVRHAKFGEGTIVNMEGSGEHSRLQVAFQGQGIKWLVAAYARLESV
notes: UvrD (helicase II), E. coli, residues 645-720 (unstructured C-terminal extension); also called C-terminal extension of UvrD (residues 645–720); source: bacterial two-hybrid fusion, pRA02 derivative, in E. coli KS1; not shown: RNA polymerase α subunit residues 1–248, N-terminal, kept
On to B3, for which, in data set [5], the β-galactosidase activity stood at 140 Miller Units.

B4: α-UvrD 1–280 (1a1b1a) fusion protein (domain or fragment, E. coli, UniProt P03018 1-280, looked up)
chain: MDVSYLLDSLNDKQREAVAAPRSNLLVLAGAGSGKTRVLVHRIAWLMSVENCSPYSIMAVTFTNKAAAEMRHRIGQLMGTSQGGMWVGTFHGLAHRLLRAHHMDANLPQDFQILDSEDQLRLLKRLIKAMNLDEKQWPPRQAMWYINSQKDEGLRPHHIQSYGNPVEQTWQKVYQAYQEACDRAGLVDFAELLLRAHELWLNKPHILQHYRERFTNILVDEFQDTNNIQYAWIRLLAGDTGKVMIVGDDDQSIYGWRGAQVENIQRFLNDFPGAETIRLE
notes: UvrD (helicase II), E. coli, residues 1-280 (domains 1a and 1b); also called N-terminal fragment of UvrD; UvrD domains 1a and 1b; source: bacterial two-hybrid fusion, pRA02 derivative, in E. coli KS1; not shown: RNA polymerase α subunit residues 1–248, N-terminal, kept
Regarding B4, the results for the β-galactosidase activity in data set [6], in data set [5] and in data set [7] were 86 Miller Units, 111 Miller Units and 336 Miller Units, respectively.
